The supplement of paper PMC7125110
± gives the standard error. Fewer inactive variants are shown than the library holds.

B1: glmS ribozyme (parent)
chain: AUAAAAGCGCCAGAACUACAGAAAUGUAGUUGACGAGGAGGAGGUUUAUCGAAUUUUCGGCGGAUGCCUCCAAA

Assays:
Conditions in all cases: with glucosamine-6-phosphate
[1] = variants of: B1; assay: self-cleavage kobs at 160 uM GlcN6P; higher = faster cleavage; RNA array
Procedure, shortened: (§1)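 Tracking of barcoded ribozyme variants used a hybridised Cy3 probe at 37 °C, after in situ transcription by E. coli RNA polymerase on sequenced MiSeq chips. The flowed solution held 40 μM to 10 mM glucosamine-6-phosphate in HEPES/KCl/Mg(OAc)2 buffer, and imaging ran over ~14 h. kobs was taken from exponential decay fits of normalised per-tile medians, and kcat and KM from weighted Michaelis–Menten fits.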

[2] = variants of: B1; assay: self-cleavage kobs at 640 uM GlcN6P; higher = faster cleavage; RNA array
Procedure, shortened: as §1

[3] = variants of: B1; assay: self-cleavage kobs at 2500 uM GlcN6P; higher = faster cleavage; RNA array
Procedure, shortened: as §1

[4] = variants of: B1; assay: self-cleavage kobs at 10000 uM GlcN6P; higher = faster cleavage; RNA array
Procedure, shortened: as §1

Variant | self-cleavage kobs at 160 uM GlcN6P [1] | self-cleavage kobs at 640 uM GlcN6P [2] | self-cleavage kobs at 2500 uM GlcN6P [3] | self-cleavage kobs at 10000 uM GlcN6P [4]
C11U U56G | 4.58e-05 ± 1.6e-05 s⁻¹ | 0.000297 ± 5.6e-05 s⁻¹ | 0.000254 ± 9.7e-05 s⁻¹ | 0.00158 ± 0.00036 s⁻¹
A12C G51C U57C A64C | < 1e-05 s⁻¹ | < 1e-05 s⁻¹ | < 1e-05 s⁻¹ | 
G13A G41U G43C | < 1e-05 s⁻¹ | < 1e-05 s⁻¹ |  | 
A12C G40C C61G | < 1e-05 s⁻¹ | < 1e-05 s⁻¹ | < 1e-05 s⁻¹ | < 1e-05 s⁻¹
C11A A42G A53C | < 1e-05 s⁻¹ |  |  | 
C10U A33G G51A A64C | < 1e-05 s⁻¹ |  |  | 
A12G G35A | < 1e-05 s⁻¹ | < 1e-05 s⁻¹ |  | < 1e-05 s⁻¹
C10U G32C A36G A39U | < 1e-05 s⁻¹ | < 1e-05 s⁻¹ | < 1e-05 s⁻¹ | 
C11U G32U A42U | < 1e-05 s⁻¹ |  | < 1e-05 s⁻¹ | 
A12C U31G A42C U69G | 0.000164 ± 3.1e-05 s⁻¹ |  | 0.00194 ± 0.00028 s⁻¹ | 
A12G A14U A15U | 4.38e-05 ± 2.1e-05 s⁻¹ |  |  | 
G13A C58A | 5.76e-05 ± 2.1e-05 s⁻¹ | 0.000121 ± 2.5e-05 s⁻¹ | 0.000307 ± 7.3e-05 s⁻¹ | 
A12G G51A | < 1e-05 s⁻¹ | < 1e-05 s⁻¹ |  | < 1e-05 s⁻¹
C10U A20G U55C | < 1e-05 s⁻¹ |  |  | 
A12U A14U U45A | 0.000413 ± 0.0001 s⁻¹ | 0.00157 ± 0.00031 s⁻¹ | 0.00242 ± 0.00082 s⁻¹ | 
A12G G13C G29A C50G | 0.00168 ± 0.00066 s⁻¹ |  | 4.52e-05 ± 1.8e-05 s⁻¹ | 
C10G C11U C16A A33U C34U C50G C70U | 4.84e-05 ± 2.3e-05 s⁻¹ | 4.89e-05 ± 1.6e-05 s⁻¹ | 6.14e-05 ± 2.5e-05 s⁻¹ | 
A12G U46G G59U | < 1e-05 s⁻¹ | < 1e-05 s⁻¹ | < 1e-05 s⁻¹ | 
A12G A36C U65A | < 1e-05 s⁻¹ | < 1e-05 s⁻¹ | < 1e-05 s⁻¹ | < 1e-05 s⁻¹
C11U A12C G43C | < 1e-05 s⁻¹ |  | < 1e-05 s⁻¹ | 
C11A A39C U49C | < 1e-05 s⁻¹ |  | < 1e-05 s⁻¹ | 
C10U U65G | < 1e-05 s⁻¹ |  |  | 
C10U G13C | < 1e-05 s⁻¹ |  |  | < 1e-05 s⁻¹
C10G G44U C50U C61U | < 1e-05 s⁻¹ | < 1e-05 s⁻¹ |  | 
C11G A14G G29A | < 1e-05 s⁻¹ |  |  | 
C10A U57A A64G C67G C71A | 0.000245 ± 7.6e-05 s⁻¹ |  | 8.51e-05 ± 3.3e-05 s⁻¹ | 
C11G G13A G44U U69G | < 1e-05 s⁻¹ |  | < 1e-05 s⁻¹ | 

Variant | self-cleavage kobs at 160 uM GlcN6P [1] | self-cleavage kobs at 640 uM GlcN6P [2] | self-cleavage kobs at 2500 uM GlcN6P [3] | self-cleavage kobs at 10000 uM GlcN6P [4]
C10A U69G | 3.29e-05 ± 1.6e-05 s⁻¹ |  | 0.000329 ± 8.6e-05 s⁻¹ | 3.29e-05 ± 1.6e-05 s⁻¹
C10U A12G G35C | < 1e-05 s⁻¹ |  |  | 
C10G G41C G63U | < 1e-05 s⁻¹ | < 1e-05 s⁻¹ |  | 
C11A A42C | < 1e-05 s⁻¹ | < 1e-05 s⁻¹ | < 1e-05 s⁻¹ | 
C10A C68G | 0.000416 ± 0.00019 s⁻¹ | 6.2e-05 ± 2.8e-05 s⁻¹ | 6.4e-05 ± 1.8e-05 s⁻¹ | 
A12G U46C A48U | < 1e-05 s⁻¹ |  |  | 
A12U G13U A48U G51C U54G C71U | < 1e-05 s⁻¹ | < 1e-05 s⁻¹ | < 1e-05 s⁻¹ | 
C11A A14C U31G U65G | < 1e-05 s⁻¹ |  |  | 2.62e-05 ± 1.2e-05 s⁻¹
C10A U31C U57A A64U | < 1e-05 s⁻¹ |  |  | 
C11G G32A U65G | < 1e-05 s⁻¹ | < 1e-05 s⁻¹ |  | < 1e-05 s⁻¹
C11A A15G U69G | 0.000139 ± 6.4e-05 s⁻¹ | 0.000293 ± 0.0001 s⁻¹ | 0.000159 ± 4.9e-05 s⁻¹ | 
A12C A14U G44U U45A | < 1e-05 s⁻¹ |  |  | 
C10U A12U G44A U49C C70G | < 1e-05 s⁻¹ | < 1e-05 s⁻¹ | < 1e-05 s⁻¹ | 
G13A G43A | < 1e-05 s⁻¹ | < 1e-05 s⁻¹ |  | < 1e-05 s⁻¹
A12U A15G C16U U31G C71U | 0.000195 ± 6.7e-05 s⁻¹ | 0.000442 ± 0.00015 s⁻¹ | 0.000331 ± 0.0001 s⁻¹ | 
A12G A14C A48U | < 1e-05 s⁻¹ | < 1e-05 s⁻¹ | < 1e-05 s⁻¹ | 
C11G A12C A52C G59U G66A C67G | < 1e-05 s⁻¹ | < 1e-05 s⁻¹ | < 1e-05 s⁻¹ | 
C10G U46A U55C | < 1e-05 s⁻¹ |  | < 1e-05 s⁻¹ | 
C11G U47A | < 1e-05 s⁻¹ | < 1e-05 s⁻¹ |  | < 1e-05 s⁻¹
C10G U45C U49A U54G C70G | < 1e-05 s⁻¹ | < 1e-05 s⁻¹ |  | 
C11A A36U U56A C68G C70A | 6.51e-05 ± 2.8e-05 s⁻¹ | 0.000823 ± 0.0003 s⁻¹ |  | 4.16e-05 ± 1.8e-05 s⁻¹
C10U A39U A64U C70G | < 1e-05 s⁻¹ | < 1e-05 s⁻¹ |  | 
C10U A12G U31A A36C C58A | < 1e-05 s⁻¹ |  |  | 
A12C G59A G63C | < 1e-05 s⁻¹ | < 1e-05 s⁻¹ |  | 
C11U G40C G43A G60U U69G C70U | < 1e-05 s⁻¹ |  | < 1e-05 s⁻¹ | 
G13A G41C C67U | < 1e-05 s⁻¹ | < 1e-05 s⁻¹ | < 1e-05 s⁻¹ | 
